How the values were obtained:
[1] = biological target: T1, FLT3 as expressed on FLT3 positive human leukemia and lymphoma cell lines (e.g. MOLM-13) (human) (UniProt P36888); assay: cell-based or functional assay
T1 sequence (looked up): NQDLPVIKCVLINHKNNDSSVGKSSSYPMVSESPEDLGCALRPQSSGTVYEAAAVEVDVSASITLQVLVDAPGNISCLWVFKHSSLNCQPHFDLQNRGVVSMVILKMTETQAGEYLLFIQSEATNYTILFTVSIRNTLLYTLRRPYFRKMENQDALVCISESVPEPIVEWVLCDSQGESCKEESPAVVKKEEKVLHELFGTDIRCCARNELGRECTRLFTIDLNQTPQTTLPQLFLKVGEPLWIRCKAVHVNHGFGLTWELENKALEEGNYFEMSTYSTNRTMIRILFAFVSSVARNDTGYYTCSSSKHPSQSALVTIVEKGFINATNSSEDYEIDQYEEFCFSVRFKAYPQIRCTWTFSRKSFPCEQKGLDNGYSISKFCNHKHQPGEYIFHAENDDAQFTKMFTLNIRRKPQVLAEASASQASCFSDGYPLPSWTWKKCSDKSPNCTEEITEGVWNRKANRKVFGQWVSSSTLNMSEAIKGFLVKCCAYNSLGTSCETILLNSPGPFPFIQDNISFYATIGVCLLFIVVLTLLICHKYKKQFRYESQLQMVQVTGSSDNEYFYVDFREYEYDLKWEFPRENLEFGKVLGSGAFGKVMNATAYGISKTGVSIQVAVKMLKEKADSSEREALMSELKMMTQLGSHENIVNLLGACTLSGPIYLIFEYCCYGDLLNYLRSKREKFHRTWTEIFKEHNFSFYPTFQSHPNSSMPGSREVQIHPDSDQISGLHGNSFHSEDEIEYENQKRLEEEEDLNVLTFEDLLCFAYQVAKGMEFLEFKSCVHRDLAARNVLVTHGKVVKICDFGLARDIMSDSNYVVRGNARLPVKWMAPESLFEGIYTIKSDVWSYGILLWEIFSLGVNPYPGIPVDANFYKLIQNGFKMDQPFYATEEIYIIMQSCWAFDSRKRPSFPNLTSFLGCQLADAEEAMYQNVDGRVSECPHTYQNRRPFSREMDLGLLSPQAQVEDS

[2] = biological target: recombinant human FLT3 protein (human) (UniProt P36888); assay: ELISA on recombinant human FLT3, normalized to BSA control

Kd [2] | Binder | IC50 of cytotoxicity in MOLM-13 cells, 96 h, resazurin [1]
– | deglycosylated 20D9-ADC (antibody, V domains shown) VH: DVMLVESGGGLVQPGRSLKLSCVASGFTFNNYWMTWIRQAPGKGLEWIASITKTGGGTYYPDSVKGRFTISRDNAKSTLYLQMNSLRSEDTATYYCTTLQQLGVMDAWGQGASVTVSS VL: DVQMTQSPSVLSASVGDRITLNCKASQNINKELNWYQQKLGEAPKLLIYNTNNLQTGIPSRFSGSGSGTDYTLTISSLQPEDVATYFCFQHKSWPLTFGSGTKLEIKR | 0.474 µg/mL
0.134 µg/mL | 19H5 chimeric anti-FLT3 monoclonal antibody (antibody, V domains shown) VH: MVQPSQTLSLTCTVSGFSLTSYNVNWVRQPPGKGLEWIGAMWRGGGTDYNPALKSRLSISRDTSKSQVFLKMNRLQTEDTAIYFCTRGFGDYWGQGVMVTVSS VL: DVQMTQSPSSMSASLGDRVTFTCQASQDIGNNLIYFQQKPGKSPRRMICCATNLAHGVPSRFSGSRSGSDYSLTLVSLESEDVADYHCLQYEHYPRTFGGGTKLELKR | –

From patent US20250049939A1, “NOVEL FLT3 ANTIBODIES AND ANTIBODY-DRUG-CONJUGATES BASED THEREON, THERAPEUTIC METHODS AND USES THEREOF IN COMBINATION WITH TYROSINE KINASE INHIBITORS” (TUBULIS GmbH, priority 2021, published 2025)
